Measurements taken from patent US20190106460A1 (published 2019).
Values belong to the binder of their own block, whether it stands above or below them. Non-standard residues stand in square brackets, D forms with d. Groups on a side chain read outwards from the residue. *: point of attachment. Chol = cholesteryl, CC(C)CCC[C@@H](C)[C@H]1CC[C@H]2[C@@H]3CC=C4C[C@@H](*)CC[C@]4(C)[C@H]3CC[C@]12C; Benzenesulfonyl(4-tBu) = CC(C)(C)c1ccc(S(=O)(=O)*)cc1; 2,4,6‑trimethylbenzoyl = Cc1cc(C)c(C(=O)*)c(C)c1; Benzenesulfonyl(4-OMe) = COc1ccc(S(=O)(=O)*)cc1; 4‑(Br)‑2‑(Me)PhSO2 = Cc1cc(Br)ccc1S(=O)(=O)*; 4‑(i-Pr)PhSO2 = CC(C)c1ccc(S(=O)(=O)*)cc1; Benzoyl(4-tBu) = CC(C)(C)c1ccc(C(=O)*)cc1; 4‑(n-Pr)PhSO2 = CCCc1ccc(S(=O)(=O)*)cc1; Phe(3-F) = N[C@@H](Cc1cccc(F)c1)C(=O)O; Benzoyl(4-Br) = O=C(c1ccc(Br)cc1)*; 2Naphthoyl = O=C(c1ccc2ccccc2c1)*; Benzoyl(4-Me) = Cc1ccc(C(=O)*)cc1; Brosyl = O=S(=O)(c1ccc(Br)cc1)*; Ahx = NCCCCCC(=O)O

Tests used:
[1] = biological target: T1, βTrCP (tag cleaved and complexed with Skp1) (UniProt Q9Y297 175-605; P63208 1-163); experiment: fluorescence polarisation assay; the column head does not say whether IC50 or Ki
T1 construct: Protein of the fluorescence polarisation assay, 0.035 µM; also called Beta Transducin repeat-containing protein; βTrCP/Skp1
Experimental: Assay components (without compound) were premixed in a microcentrifuge tube and incubated for 1 hour to ensure equilibrium was achieved. Each compound was then added to one tube, mixed by vortexing, and then dispensed into 3 wells of a black 384-well plate and incubated for 30 minutes. Fluorescence polarization was then read (excitation 485 nm, emission 530 nm) using an Analyst-AD from Molecular Devices.
Binding of the compounds to βTrCP was assessed using a fluorescence polarisation (FP) binding assay. The FP assay is an in vitro binding assay using a fluorescein-tagged IkB peptide at 10 nM to mimic substrate binding to βTrCP, and was performed as described above.

[2] = biological target: T2, Beta Transducin repeat-containing protein (βTrCP), tag cleaved and complexed with Skp1 (UniProt Q9Y297 175-605; P63208 1-163); experiment: FP competition dose-response, fluorescein-IkB peptide tracer on βTrCP/Skp1 (average Ki; assay not given)
T2 construct: the FP protocol says that Ki is determined from FP dose-response curves; also called βTrCP/Skp1
T2 sequence (Q9Y297 175-605, chain 1 of 2): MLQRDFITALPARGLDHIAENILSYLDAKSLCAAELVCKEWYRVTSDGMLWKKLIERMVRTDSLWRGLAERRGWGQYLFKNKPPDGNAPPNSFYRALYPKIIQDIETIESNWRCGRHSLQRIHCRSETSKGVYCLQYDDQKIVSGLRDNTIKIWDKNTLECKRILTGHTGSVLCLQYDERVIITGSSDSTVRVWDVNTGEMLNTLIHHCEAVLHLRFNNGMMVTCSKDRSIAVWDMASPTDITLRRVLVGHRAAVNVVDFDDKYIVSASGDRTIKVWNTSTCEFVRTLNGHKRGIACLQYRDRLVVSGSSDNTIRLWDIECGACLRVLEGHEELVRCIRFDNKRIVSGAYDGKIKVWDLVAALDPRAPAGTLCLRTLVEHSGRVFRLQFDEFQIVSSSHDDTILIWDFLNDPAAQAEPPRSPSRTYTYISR
T2 sequence (P63208 whole entry, chain 2 of 2): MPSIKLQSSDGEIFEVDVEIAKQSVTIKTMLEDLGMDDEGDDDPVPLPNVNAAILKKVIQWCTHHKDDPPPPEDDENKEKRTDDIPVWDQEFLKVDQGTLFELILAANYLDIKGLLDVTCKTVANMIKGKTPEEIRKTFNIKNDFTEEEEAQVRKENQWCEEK

[3] = biological target: T3, βTrCP (tag cleaved and complexed with Skp1) (UniProt Q9Y297 175-605; P63208 1-163); experiment: FP competition vs fluorescein-IκB peptide
T3 construct: Protein of the FP assay (0.035 µM); also called Beta Transducin repeat-containing protein; βTrCP/Skp1

- FP Assay / [1]: 114 nM
Binder: {4‑(Br)‑2‑(Me)PhSO2}-[dD]EG[Phe(3-F)]WE[Ahx]K(2,4,6‑trimethylbenzoyl)-NH2 (Round II CPP; also called UBP096) [4-(Br)-2-(Me)PhSO2-dEGF(3F)WE-Ahx-K(CO((2,4,6-Me3)Ph))-NH2]

- FP Assay / [1]: 7.66 nM
Binder: {4‑(i-Pr)PhSO2}-[dD]EG[Phe(3-F)]WE[Ahx]K(2Naphthoyl)-NH2 (Round II CPP; also called UBP081) [4-(i-Pr)PhSO2-dEGF(3F)WE-Ahx-K(CO(2-Naphth))-NH2]

- FP Assay / [1]: 86.7 nM
Binder: {4‑(Br)‑2‑(Me)PhSO2}-[dD]EG[Phe(3-F)]WE[Ahx]K(2Naphthoyl)-NH2 (Round II CPP; also called UBP095) [4-(Br)-2-(Me)PhSO2-dEGF(3F)WE-Ahx-K(CO(2-Naphth))-NH2]

- FP Assay / [1]: 114 nM
Binder: {4‑(Br)‑2‑(Me)PhSO2}-[dD]EG[Phe(3-F)]WE[Ahx]K(Benzoyl(4-Me))-NH2 (Round II CPP; also called UBP097) [4-(Br)-2-(Me)PhSO2-dEGF(3F)WE-Ahx-K(CO((4-Me)Ph))-NH2]

- Ki [2]: 45.3 nM
Binder: {2,4‑(Br)2‑PhSO2}-[dD]EG[Phe(3-F)]WE-NH2 (also called UBP049) [2,4-(Br)2-PhSO2-dEGF(3F)WE-NH2]

- FP Assay / [1]: 40.8 nM
Binder: {Benzenesulfonyl(4-tBu)}-[dD]EG[Phe(3-F)]WE[Ahx]K(Benzoyl(4-Br))-NH2 (Round II CPP; also called UBP079) [4-(t-Bu)PhSO2-dEGF(3F)WE-Ahx-K(CO((4-Br)Ph))-NH2]

- Ki [2]: 9.45 nM
Binder: {4‑CF3‑PhSO2}-[dD]EG[Phe(3-F)]WE-NH2 (also called UBP047) [4-CF3-PhSO2-dEGF(3F)WE-NH2]

- FP Assay / [1]: 136 nM
Binder: {4‑(n-Pr)PhSO2}-[dD]EG[Phe(3-F)]WE[Ahx]K(2Naphthoyl)-NH2 (Round II CPP; also called UBP085) [4-(n-Pr)PhSO2-dEGF(3F)WE-Ahx-K(CO(2-Naphth))-NH2]

- FP Assay / [1]: 29.4 nM
Binder: {4‑(n-Pr)PhSO2}-[dD]EG[Phe(3-F)]WE[Ahx]K(2,4,6‑trimethylbenzoyl)-NH2 (Round II CPP; also called UBP086) [4-(n-Pr)PhSO2-dEGF(3F)WE-Ahx-K(CO((2,4,6-Me3)Ph))-NH2]

- FP Assay / [1]: 92.4 nM
Binder: {4‑(Br)‑2‑(Me)PhSO2}-[dD]EG[Phe(3-F)]WE[Ahx]K(Benzoyl(4-Br))-NH2 (Round II CPP; also called UBP098) [4-(Br)-2-(Me)PhSO2-dEGF(3F)WE-Ahx-K(CO((4-Br)Ph))-NH2]

- Ki [2]: 5.81 nM
Binder: {2‑Naph‑SO2}-[dD]EG[Phe(3-F)]WE-NH2 (also called UBP044) [2-Naph-SO2-dEGF(3F)WE-NH2]

- Ki [2]: 2.52 nM
Binder: {4‑Br‑PhSO2}-[dD]EG[Phe(3-F)]WE-NH2 (also called UBP042) [4-Br-PhSO2-dEGF(3F)WE-NH2]

- Ki [2]: 3.96 nM
Binder: {4‑Br‑2‑CH3‑PhSO2}-[dD]EG[Phe(3-F)]WE-NH2 (also called UBP043) [4-Br-2-CH3-PhSO2-dEGF(3F)WE-NH2]

- FP Assay / [1]: 43.4 nM
Binder: {Benzenesulfonyl(4-tBu)}-[dD]EG[Phe(3-F)]WE[Ahx]K(2Naphthoyl)-NH2 (Round II CPP; also called UBP076) [4-(t-Bu)PhSO2-dEGF(3F)WE-Ahx-K(CO(2-Naphth))-NH2]

- FP Assay / [1]: 40 nM
Binder: {Benzenesulfonyl(4-tBu)}-[dD]EG[Phe(3-F)]WE[Ahx]K(Benzoyl(4-Me))-NH2 (Round II CPP; also called UBP078) [4-(t-Bu)PhSO2-dEGF(3F)WE-Ahx-K(CO((4-Me)Ph))-NH2]

- FP Assay / [1]: 88.3 nM
Binder: Brosyl-[dD]EG[Phe(3-F)]WE[Ahx]K(2,4,6‑trimethylbenzoyl)-NH2 (Round II CPP; also called UBP091) [4-(Br)PhSO2-dEGF(3F)WE-Ahx-K(CO((2,4,6-Me3)Ph))-NH2]

- FP Assay / [1]: 133 nM
Binder: Brosyl-[dD]EG[Phe(3-F)]WE[Ahx]K(2Naphthoyl)-NH2 (Round II CPP; also called UBP090) [4-(Br)PhSO2-dEGF(3F)WE-Ahx-K(CO(2-Naphth))-NH2]

- FP Assay / [1]: 87.8 nM
Binder: {Benzenesulfonyl(4-tBu)}-[dD]EG[Phe(3-F)]WE[Ahx]K(Benzoyl(4-tBu))-NH2 (Round II CPP; also called UBP075) [4-(t-Bu)PhSO2-dEGF(3F)WE-Ahx-K(CO((4-tBu)Ph))-NH2]

- Ki [2]: 14.2 nM
Binder: {4‑Br‑3‑CF3‑PhSO2}-[dD]EG[Phe(3-F)]WE-NH2 (also called UBP046) [4-Br-3-CF3-PhSO2-dEGF(3F)WE-NH2]

- Ki [2]: 4.77 nM
Binder: {4‑OCF3‑PhSO2}-[dD]EG[Phe(3-F)]WE-NH2 (also called UBP045) [4-OCF3-PhSO2-dEGF(3F)WE-NH2]

- FP Assay / [1]: 174 nM
Binder: {4‑(n-Pr)PhSO2}-[dD]EG[Phe(3-F)]WE[Ahx]K(Benzoyl(4-tBu))-NH2 (Round II CPP; also called UBP084) [4-(n-Pr)PhSO2-dEGF(3F)WE-Ahx-K(CO((4-tBu)Ph))-NH2]

Continued, binder first:

Binder: {4‑(i-Pr)PhSO2}-[dD]EG[Phe(3-F)]WE[Ahx]K(2,4,6‑trimethylbenzoyl)-NH2 (Round II CPP; also called UBP082) [4-(i-Pr)PhSO2-dEGF(3F)WE-Ahx-K(CO((2,4,6-Me3)Ph))-NH2]
- FP Assay / [1]: 56.1 nM

Binder: {4‑(i-Pr)PhSO2}-[dD]EG[Phe(3-F)]WE[Ahx]K(Benzoyl(4-Br))-NH2 (Round II CPP; also called UBP083) [4-(i-Pr)PhSO2-dEGF(3F)WE-Ahx-K(CO((4-Br)Ph))-NH2]
- FP Assay / [1]: 36.5 nM

Binder: Brosyl-[dD]EG[Phe(3-F)]WE[Ahx]K(Benzoyl(4-tBu))-NH2 (Round II CPP; also called UBP089) [4-(Br)PhSO2-dEGF(3F)WE-Ahx-K(CO((4-tBu)Ph))-NH2]
- FP Assay / [1]: 305 nM

Binder: {4‑Br‑2‑OCF3‑PhSO2}-[dD]EG[Phe(3-F)]WE-NH2 (also called UBP051) [4-Br-2-OCF3-PhSO2-dEGF(3F)WE-NH2]
- Ki [2]: 110 nM

Binder: {Benzenesulfonyl(4-tBu)}-[dD]EG[Phe(3-F)]WE[Ahx]K(2,4,6‑trimethylbenzoyl)-NH2 (Round II CPP; also called UBP077) [4-(t-Bu)PhSO2-dEGF(3F)WE-Ahx-K(CO((2,4,6-Me3)Ph))-NH2]
- FP Assay / [1]: 40.9 nM

Binder: {2,4‑(Cl)2‑PhSO2}-[dD]EG[Phe(3-F)]WE-NH2 (also called UBP048) [2,4-(Cl)2-PhSO2-dEGF(3F)WE-NH2]
- Ki [2]: 27 nM

Binder: {4‑(PhO)PhSO2}-[dD]EG[Phe(3-F)]WE-NH2 [4-(PhO)PhSO2-dEG-F(3F)-WE-NH2]
- IC50 [3]: 63 nM

Binder: {4‑(n-Pr)PhSO2}-[dD]EG[Phe(3-F)]WE[Ahx]K(Benzoyl(4-Me))-NH2 (Round II CPP; also called UBP087) [4-(n-Pr)PhSO2-dEGF(3F)WE-Ahx-K(CO((4-Me)Ph))-NH2]
- FP Assay / [1]: 58.3 nM

Binder: {4‑Cl‑PhSO2}-[dD]EG[Phe(3-F)]WE-NH2 (also called UBP053) [4-Cl-PhSO2-dEGF(3F)WE-NH2]
- Ki [2]: 330 nM

Binder: {4‑(i-Pr)PhSO2}-[dD]EG[Phe(3-F)]WE[Ahx]K(Benzoyl(4-tBu))-NH2 (Round II CPP; also called UBP080) [4-(i-Pr)PhSO2-dEGF(3F)WE-Ahx-K(CO((4-tBu)Ph))-NH2]
- FP Assay / [1]: 73 nM

Binder: Brosyl-[dD]EG[Phe(3-F)]WE[Ahx]K(Benzoyl(4-Br))-NH2 (Round II CPP; also called UBP093) [4-(Br)PhSO2-dEGF(3F)WE-Ahx-K(CO((4-Br)Ph))-NH2]
- FP Assay / [1]: 106 nM

Binder: {3,5‑(CH3)2‑PhSO2}-[dD]EG[Phe(3-F)]WE-NH2 (also called UBP050) [3,5-(CH3)2-PhSO2-dEGF(3F)WE-NH2]
- Ki [2]: 24.6 nM

Binder: {4‑(n-Pr)PhSO2}-[dD]EG[Phe(3-F)]WE[Ahx]K(Benzoyl(4-Br))-NH2 (Round II CPP; also called UBP088) [4-(n-Pr)PhSO2-dEGF(3F)WE-Ahx-K(CO((4-Br)Ph))-NH2]
- FP Assay / [1]: 39.6 nM

Binder: {Benzenesulfonyl(4-OMe)}-[dD]EG[Phe(3-F)]WE[Ahx]K([Ahx-Chol])-NH2 (X stands for Ahx; also called UBP036) [4-(MeO)PhSO2-dEGF(3F)WE-Ahx-K(Ahx-Chol)-NH2]
- FP Assay / [1]: 19.3 nM

Binder: {4‑I‑PhSO2}-[dD]EG[Phe(3-F)]WE-NH2 (also called UBP052) [4-I-PhSO2-dEGF(3F)WE-NH2]
- Ki [2]: 253 nM

Binder: Brosyl-[dD]EG[Phe(3-F)]WE[Ahx]K(Benzoyl(4-Me))-NH2 (Round II CPP; also called UBP092) [4-(Br)PhSO2-dEGF(3F)WE-Ahx-K(CO((4-Me)Ph))-NH2]
- FP Assay / [1]: 151 nM

B1: 4-(MeO)PhSO2-dEGF(3F)WE-Ahx-k9-NH2 (peptide)
peptide: {Benzenesulfonyl(4-OMe)}-[dD]EG[Phe(3-F)]WE[Ahx][dK][dK][dK][dK][dK][dK][dK][dK][dK]-NH2
SMILES: COc1ccc(S(=O)(=O)N[C@H](CC(=O)O)C(=O)N[C@@H](CCC(=O)O)C(=O)NCC(=O)N[C@@H](Cc2cccc(F)c2)C(=O)N[C@@H](Cc2c[nH]c3ccccc23)C(=O)N[C@@H](CCC(=O)O)C(=O)NCCCCCC(=O)N[C@H](CCCCN)C(=O)N[C@H](CCCCN)C(=O)N[C@H](CCCCN)C(=O)N[C@H](CCCCN)C(=O)N[C@H](CCCCN)C(=O)N[C@H](CCCCN)C(=O)N[C@H](CCCCN)C(=O)N[C@H](CCCCN)C(=O)N[C@H](CCCCN)C(N)=O)cc1
notes: the sheet gives this poly-lysine compound the code UBP022; it is not the untailed UBP022 (1.m39, 5.m30, 6.m3)
- FP Assay / [1]: 548 nM

Binder: {4‑(Br)‑2‑(Me)PhSO2}-[dD]EG[Phe(3-F)]WE[Ahx]K(Benzoyl(4-tBu))-NH2 (Round II CPP; also called UBP094) [4-(Br)-2-(Me)PhSO2-dEGF(3F)WE-Ahx-K(CO((4-tBu)Ph))-NH2]
- FP Assay / [1]: 142 nM
